Measurements taken from paper PMC8365315 (EBioMedicine, 2021).

Molecular target: exportin 4 (XPO4) (UniProt Q9C0E2 1-1151)
Experiment: SPR

Chain of exportin 4 (XPO4) (Q9C0E2 whole entry): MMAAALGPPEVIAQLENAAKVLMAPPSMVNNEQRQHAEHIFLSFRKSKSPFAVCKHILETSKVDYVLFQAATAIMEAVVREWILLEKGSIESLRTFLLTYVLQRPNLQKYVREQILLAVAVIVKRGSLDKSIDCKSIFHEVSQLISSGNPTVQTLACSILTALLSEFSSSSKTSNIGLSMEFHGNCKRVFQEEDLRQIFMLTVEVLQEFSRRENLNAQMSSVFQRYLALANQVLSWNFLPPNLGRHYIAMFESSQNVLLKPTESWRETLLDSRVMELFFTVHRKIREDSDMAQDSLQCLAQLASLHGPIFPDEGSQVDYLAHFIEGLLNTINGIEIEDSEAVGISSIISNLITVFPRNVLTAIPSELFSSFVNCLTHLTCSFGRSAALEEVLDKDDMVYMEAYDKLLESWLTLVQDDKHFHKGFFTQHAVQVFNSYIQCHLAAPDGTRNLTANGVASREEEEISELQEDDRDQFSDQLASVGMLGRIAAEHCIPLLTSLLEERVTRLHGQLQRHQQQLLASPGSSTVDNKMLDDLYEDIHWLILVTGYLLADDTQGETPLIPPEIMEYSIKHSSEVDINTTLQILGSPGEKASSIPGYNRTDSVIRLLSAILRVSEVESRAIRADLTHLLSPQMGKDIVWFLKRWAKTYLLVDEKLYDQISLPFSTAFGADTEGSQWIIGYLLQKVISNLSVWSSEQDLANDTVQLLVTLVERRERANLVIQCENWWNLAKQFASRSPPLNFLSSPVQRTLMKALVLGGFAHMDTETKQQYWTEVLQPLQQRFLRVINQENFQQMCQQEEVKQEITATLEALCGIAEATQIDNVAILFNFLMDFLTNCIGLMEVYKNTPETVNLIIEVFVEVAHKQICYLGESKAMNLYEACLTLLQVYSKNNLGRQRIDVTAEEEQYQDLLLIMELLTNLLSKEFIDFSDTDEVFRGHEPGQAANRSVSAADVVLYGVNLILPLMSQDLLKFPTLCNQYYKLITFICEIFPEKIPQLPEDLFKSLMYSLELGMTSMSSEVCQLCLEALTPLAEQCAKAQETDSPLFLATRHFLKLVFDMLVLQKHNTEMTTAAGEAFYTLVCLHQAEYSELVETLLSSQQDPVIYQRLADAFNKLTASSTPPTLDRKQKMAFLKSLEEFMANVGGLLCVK

B1: SMAD3 (natural protein, UniProt P84022 1-425, looked up)
chain: MSSILPFTPPIVKRLLGWKKGEQNGQEEKWCEKAVKSLVKKLKKTGQLDELEKAITTQNVNTKCITIPRSLDGRLQVSHRKGLPHVIYCRLWRWPDLHSHHELRAMELCEFAFNMKKDEVCVNPYHYQRVETPVLPPVLVPRHTEIPAEFPPLDDYSHSIPENTNFPAGIEPQSNIPETPPPGYLSEDGETSDHQMNHSMDAGSPNLSPNPMSPAHNNLDLQPVTYCEPAFWCSISYYELNQRVGETFHASQPSMTVDGFTDPSNSERFCLGLLSNVNRNAAVELTRRHIGRGVRLYYIGGEVFAECLSDSAIFVQSPNCNQRYGWHPATVCKIPPGCNLKIFNNQEFAALLAQSVNQGFEAVYQLTRMCTIRMSFVKGWGAEYRRQTVTSTPCWIELHLNGPLQWLDKVLTQMGSPSIRCSSVS
B1 showed a Kd of 4.88 nM.
